Changes are numbered by the printed parent chain. Each block holds one binder with its values, some of them ahead of it.
Biological target: T1, CD40hfc (R&Dsystems, USA) (human, UniProt P25942 21-193)
T1 construct: Bought reagent, amine-coupled to the Biacore chip; also called immobilized CD40 receptor; not shown: Fc part of the bought CD40hfc
Test: SPR, Biacore 3000; CD40hfc amine-coupled to chip, antibody as analyte; 37 C, pH 7.3
Procedure: The affinity measures of purified antibodies by surface plasmon resonance using the Biacore 3000 instrument was performed according to manufacturer's protocols.
The CD40hfc (R&Dsystems, USA) was immobilized to the BIAcore sensorchip, CMS, using conventional amine coupling. The anti-CD40 antibodies of the invention, (serially diluted 1/3 from 1-0.012 nM) were analysed for binding in HBS-P (GE, BR-1003-68) at a flow rate of 30 μl/min at 37° C. and pH 7.3. The association was followed for 3 minutes and the dissociation for 10 minutes. Regeneration was performed twice using 50 mM NaOH for 30 seconds. The kinetic parameters and the affinity constants were calculated using BIAevaluation 4.1 software.

T1 sequence (P25942 21-193): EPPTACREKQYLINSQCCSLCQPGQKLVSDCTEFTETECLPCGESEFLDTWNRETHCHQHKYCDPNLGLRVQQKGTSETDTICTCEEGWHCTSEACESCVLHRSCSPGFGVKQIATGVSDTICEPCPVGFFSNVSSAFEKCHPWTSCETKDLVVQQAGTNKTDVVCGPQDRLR

- koff: 0.00032 s⁻¹
B1: Antibody clone F6 (antibody, human IgG1, lambda, V domains shown)
VH: EVQLLESGGGLVQPGGSLRLSCAASGFTFSTYGMHWVRQAPGKGLEWLSYISGGSSYIFYADSVRGRFTISRDNSENALYLQMNSLRAEDTAVYYCARILRGGSGMDLWGQGTLVTVSS
VL: QSVLTQPPSASGTPGQRVTISCTGSSSNIGAGYDVYWYQQLPGTAPKLLIYRNINRPSGVPDRFSGSKSGTSASLAISGLRSEDEADYYCAAWDGSLLGLVFGGGTKLTVLG
notes: Tested as purified antibody

- koff: 0.00012 s⁻¹
B2: Antibody clone F9 (antibody, human IgG1, lambda, V domains shown)
VH: B1 VH
VL: B1 VL with D34G, R52G, S96T, L98T, V101L
notes: Tested as purified antibody
